From US20150050271A1 (published 2015)
Where a chain is given by its changes, count along the chain named. Names and notes keep the numbering of the source.

Experiments:
WT (2A) = test: ELISA
WT (2B) = test: ELISA
WT (1B) = test: ELISA
WT (3) = test: ELISA
WT (1A) = test: ELISA
[1] = target: T1, MAD1 JCV VLPs (virus-like particles of JCV capsid protein VP1, MAD1 strain) (JC virus (JCV), MAD1, UniProt P03089 1-354); test: ELISA
[2] = target: T1, MAD1 JCV VLPs (virus-like particles of …); test: Biacore; mAb
[3] = target: T1, MAD1 JCV VLPs (virus-like particles of …); test: Biacore; Fab
Type 3 wt = test: Biacore; mAb; printed ≤

T1 sequence (P03089 whole entry): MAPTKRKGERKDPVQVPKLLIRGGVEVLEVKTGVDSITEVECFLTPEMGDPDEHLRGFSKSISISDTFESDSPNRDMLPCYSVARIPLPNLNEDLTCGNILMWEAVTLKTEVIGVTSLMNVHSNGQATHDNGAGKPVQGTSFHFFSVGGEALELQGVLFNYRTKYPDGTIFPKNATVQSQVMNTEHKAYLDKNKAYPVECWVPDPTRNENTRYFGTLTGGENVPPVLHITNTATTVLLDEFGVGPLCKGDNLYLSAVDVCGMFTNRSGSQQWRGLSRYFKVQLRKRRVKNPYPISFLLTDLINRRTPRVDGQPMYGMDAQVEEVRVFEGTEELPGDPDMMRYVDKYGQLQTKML

B1: BIIB048 (antibody, V domains shown)
VH: QVQLVESGGGVVQPGRSLRLSCAASGFSFDRNYWIAWVRQAPGKGLEWVAVISAGGSGNTYYATWAKGRFTISRDNSKNTLYLQMNSLRAEDTAVYYCARFYSGGGYYAGYFTLWGQGTLVTVSS
VL: AIQLTQSPSSLSASVGDRVTITCQASQSIGNNLAWYQQKPGKAPKLLIYLASYLASGVPSRFSGSGSGTDFTLTISSLQPEDFATYYCQSSYYSPNDNAFGQGTKVEIK
Which EC50 (WT (2A)) does the source give for B1 here?
Its EC50 is less than 100 pM.

What about the EC50 (WT (2B)) of the same binder?
Its EC50 is less than 100 pM.

And the EC50 (WT (1B))?
Its EC50 is less than 100 pM.

And the EC50 (WT (3))?
Its EC50 is less than 100 pM.

What about the EC50 (WT (1A)) of the same binder?
Its EC50 is less than 100 pM.

B2: 5031G (antibody, V domains shown)
VH: B1 VH with V51G
VL: B1 VL with I2F, T22N, N31A, D70Q, I75V
Which EC50 (WT (2A)) does the source give for B2 here?
Its EC50 is less than 100 pM.

What about the EC50 (WT (2B)) of the same binder?
The EC50 was less than 100 pM.

And the EC50 (WT (1B))?
Its EC50 is less than 100 pM.

What about the EC50 (WT (3)) of the same binder?
The EC50 was less than 100 pM.

What about the EC50 (WT (1A)) of the same binder?
The EC50 was less than 100 pM.

B3: humanized R399 H0L0 (antibody, V domains shown)
VH: B1 VH
VL: B1 VL
For B3, which EC50 [1] is on record?
The EC50 was less than 100 pM.

B4: antibody 50/31-A (heavy chain H0 V50A, light chain L2 N31A) (antibody, V domains shown)
VH: B1 VH with V51A
VL: B1 VL with I2F, T22N, N31A, D70Q, I75V
For B4, which Kd [2] is on record?
Its Kd is 900 pM.

B5: V50A/N31A Fab (antibody, V domains shown)
VH: B1 VH with V51A
VL: B1 VL with I2F, T22N, N31A, D70Q, I75V
With B5 as the binder, how does the Kd [3] read?
Its Kd is 8900 pM.

B6: H0/L0 Fab (antibody, V domains shown)
VH: B1 VH
VL: B1 VL
B6 was tested. Which Kd [3] did it give?
The Kd was 50000 pM.

B7: H0/L0 mAb (antibody, V domains shown)
VH: B1 VH
VL: B1 VL
With B7 as the binder, how does the Kd (Type 3 wt) read?
The Kd was less than 10 pM.

B8: antibody 50/31-G (heavy chain H0 V50G, light chain L2-N31A, as told in paragraph 169) (antibody, V domains shown)
VH: B1 VH with V51G
VL: B1 VL with I2F, T22N, N31A, D70Q, I75V
For B8, which EC50 [1] is on record?
The EC50 was less than 100 pM.
